Key:
[1] = target: Myc-GST融合蛋白 (Myc-GST fusion protein); experiment: indirect ELISA, Myc-GST coated at 5 μg/mL, HRP anti-His secondary antibody, heat test at 90℃
[2] = target: Myc-GST融合蛋白 (Myc-GST fusion protein); experiment: indirect ELISA, Myc-GST coated at 5 μg/mL, HRP anti-His secondary antibody, heat test at 70℃
[3] = target: Myc-GST融合蛋白 (Myc-GST fusion protein); experiment: indirect ELISA, Myc-GST coated at 5 μg/mL, HRP anti-His secondary antibody, heat test at 80℃

B1: 抗c-Myc标签单域重链抗体 (anti-c-Myc tag single-domain heavy-chain antibody) (VHH, not shown: small tags and cut ends)
VHH: QLQLVESGGGLVRPGESLRLSCDASSSEPPLLAYVVSWFRQVPGKEREGISCSSSSGVRNSYADSVKGRFTISRDNHKNTVYLQMNSLQAEDTAIYYCAAARLGARGCDFREDLQGTWGQGTQVTVSS
OD450 [1]: 1 OD450 | OD450 [2]: 1.4 OD450 | OD450 [3]: 1.2 OD450

— patent publication CN107042099A
